In article PMC9844198 one finds stoichiometry N data, which are given here for one substance.

In this assay the target is LD-CLIMP-63-FLAG (soluble CLIMP-63 luminal domain, C-terminal His6-FLAG tag) (human). Briefly: native MS; intact protein mass LC-MS under native-like conditions; MAbPac SEC-1 column, 50 mM ammonium acetate pH 7.5, QExactive HF Orbitrap, high-mass-range mode.

As a reminder, the stoichiometry N is the number of molecules, sites or subunits per partner or assembly. The substance “LD-CLIMP-63-FLAG (soluble CLIMP-63 luminal domain, C-terminal His6-FLAG tag) (domain or fragment)” yielded a stoichiometry N of 3.
